This passage reports Kd results from publication PMC4906023.

The Kd is the concentration at which binding is half-saturated. Low readings indicate a tighter complex, high ones a looser complex.

The assay concerns the target His6-GyrB subunit of M. tuberculosis DNA gyrase (M. tuberculosis H37Rv) (UniProt P9WG45). The assay can be described thus: SPR; BIAcore T200; […], association 180 s, dissociation 600 s; HBS-N. On the technique in general: In SPR one partner is held on a chip, and binding of the other changes the refractive index at the surface.

B1: MParE2 without the His6-tag (natural protein)
chain: MTRRLRVHNGVEDDLFEAFSYYADAAPDQIDRLYNLFVDAVTKRIPQAPNAFAPLFKHYRHIYLRPFRYYVAYRTTDEAIDILAVRHGMENPNAVEAEISGRTFE
In turn, B1 displayed a Kd of 4.75 µM. In other words, the single-digit micromolar range.
